assay: soluble on expression in E. coli; label from the status in PepcDB or PDB records

Row | Sequence | soluble on expression in E. coli
1 | MENCPLVSVIVCAYNAEQYIDESISSIINQTYENLEIIVINDGSTDLTLSHLEEISKLDKRIKIISNKYNLGFINSLNIGLGCFSGKYFARMDADDIAKPSWIEKIVTYLEKNDHITAMGSYLEIIVEKECGIIGSQYKTGDIWKNPLLHNDICEAMLFYNPIHNNTMIMRANVYREHKLIFNKDYPYAEDYKFWSEVSRLGCLANYPEALVKYRLHGNQTSSVYNHEQNETAKKIKRENITYYLNKIGIDIKVINSVSLLEIYHVDKSNKVLKSILYEMYMSLDKYTITSLLHFIKYHLELFDLKQNLKIIKKFIRKINVIF | not soluble
2 | MAHHHHHHMANSKFSYVKLFEEERKILLNCYFIVRIDGCDFKHFVKAHNYNKPNDIKGLNLMNECALDILKKFDDIDLCYGHSDEYSFLFNKSTKLWNRRYDKILTNVVSYFTSCFLYKWKNYFQKEMLYAPSFDARIVVYPNEKEIKDYFSWRQVDCHINTQYNECFWNLIRQANYTNDEAHKFLLTTQTKDKNELLFSRFNINYNNLPEIFRRGTIIIRNKTFQKKNEALGTIYNNDTANNIDDNNNNNNNNNNTFNDNNDIENFEKLKKECLPKFIISHENLVSEKFWDKYDYIFKKKKDLEKK | not soluble
3 | MKIYIQPLSVNSHTVEVLANSLPKIFNAEVFVLPASDVSLKCYNASRRQYNSTCILRMLPPIKVTLGVTGKDIYAKGMNFVFGEAELGGARAVLSVFRLTTADSELYRERVVKEAVHEIGHVLGLKHCSNNCVMRFSNSVQDVDRKPVSFCRECASKIRYLEHHHHHH | soluble
4 | MGSDKIHHHHHHMEFQCPLCRQRLHFHEESRGWHCDGKHHFDKKEIGYWDFYKGNKPRNAESRQELRARQFLVTSGLFQPAVEAMVKVLQTQDCGSERNCVNLGPGHAWIGKLLAQALSEHELPLKVFSPLESENEAFAAAKSGMEAVCLTPLKSLPFADASADMVWLLDIPAKGKEWQRILKPGGLLLMLAAGPRHLWQIKEFVYEGLTEKPFVLELSGQFDLISQTPVSWTHALSVADAKVLMGMAPWAWRVKEASLKAMEKGDFSGLEMDYRIILAKKRV | not soluble
5 | MGLSNRAIIIDGKNHLLGRLASIVAKKLLQGDKVVVLRAEEIVISGNFHRSKLKYMSFLRKRCNINPARGAFHYRAPGKIFWRTVRGMLPHKTNRGNEALKNLRAYEGVPAKYQKTKSLHAPSASRFRLQPRRKFCVVGRLSHEVGWQFQDVVAKLEAKRKVKGAAYFEQKKKMDKLAVQAKKNAAPKIAQYQKIIEALGYN | not soluble
6 | MGSDKIHHHHHHMTTPRRALIVIDVQNEYVTGDLPIEYPDVQSSLANIARAMDAARAAGVPVVIVQNFAPAGSPLFARGSNGAELHPVVSERARDHYVEKSLPSAFTGTDLAGWLAARQIDTLTVTGYMTHNCDASTINHAVHSGLAVEFLHDATGSVPYENSAGFASAEEIHRVFSVVLQSRFAAVASTDEWIAAVQGGTPLARGNIYASNQKARARRATA | not soluble
7 | MVRKGCNSLVRAEKILTHIAWVGMASYMELLNKFQYPKSSLLNLLNVMVDCGFLIKNKNGYYSLGIKNYELGCQALHRQNIFEVTKRPMQELSLKSGLVCHLGAMESISAIYLDKIESPDSVPTSKSWIGKKLELHITALGKALLAWKTREELDYFLEALTLTPHTRNTFTDKKLFLEELQKTRLRGWAIDNEESTYGAVCLSMPVFNMYNRVNYAISLSGDPVVYSGNKIDSYLELLRKCAEQISYGLGYRNENEHLRKGN | soluble
8 | MLTQQQIDHIYDSLGCPLHFLWSYIGTAHGLSHDQADPDSFEERKKDFFFIVGKLLDDGLLKLGNRKTELIMEGNIEELVEMFRKSLPASDEEIDQEVGGLWFFTDCPFVAAWVYKGAGENGEDEYDWC | not soluble
9 | MFKRLFMVALLAIAPLVHAVDQSNPYRLMDEAAKKTFTRLKNEQPKIKQNPDYLRTIVREELLPFVQIKYAGALVLGSYYKDATPAQREAYFNAFGKYLEQAYGQALALYHGQTYDVAPDQPLGDANIVAIRVTILDPSGRPPVRLDFQWRKNSQTGNWQAYDMIAEGVSMISTKQNEWASILRQKGVDGLTQQLLSAAKQPITLDK | not soluble
10 | MAHHHHHHSLEYNLTTTEVAMENVSASWDEGIGEFFEKAKLEVNGGNISNEDPSAFFSNFSLHVAPVLRNINFKIEKGQLLAIAGSTGAGKTSLLMMIMGELEPSAGKIKHSGRISFSPQVSWIMPGTIKENIVFGVSYDQYRYLSVIKACQLEEDISKFPEKDNTVLGEGGITLSGGQRARISLARAVYKDADLYLLDSPFSYLDLFTEKEIFESCVCKLMANKTRILVTSKVEQLKKADKVLILHEGSCYFYGTFSELEDQRPEFSSHLIGFDHFNAERRNSIITETLRRCSEG | soluble
11 | MKIAVAGSGYVGLSLGVLLSLQNEVTIVDILPSKVDKINNGLSPIQDEYIEYYLKSKQLSIKATLDSKAAYKEAELVIIATPTNYNSRINYFDTQHVETVIKEVLSVNSHATLIIKSTIPIGFITEMRQKFQTDRIIFSPEFLRESKALYDNLYPSRIIVSCEENDSPKVKADAEKFALLLKSAAKKNNVPVLIMGASEAEAVKLFANTYLALRVAYFNELDTYAESRKLNSHMIIQGISYDDRIGMHYNNPSFGYGGYCLPKDTKQLLANYNNIPQTLIEAIVSSNNVRKSYIAKQIINVLKEQESPVKVVGVYRLIMKSNSDNFRESAIKDVIDILKSKDIKIIIYEPMLNKLESEDQSVLVNDLENFKKQANIIVTNRYDNELQDVKNKVYSRDIFGRD | soluble
12 | MTEMTKPFLIVIVGPTASGKTELSIEVAKKFNGEIISGDSMQVYQGMDIGTAKVTTEEMEGIPHYMIDILPPDASFSAYEFKKRAEKYIKDITRRGKVPIIAGGTGLYIQSLLYNYAFEDESISEDKMKQVKLKLKELEHLNNNKLHEYLASFDKESAKDIHPNNRKRVLRAIEYYLKTKKLLSSRKKVQQFTENYDTLLIGIEMSRETLYLRINKRVDIMLGHGLFNEVQHLVEQGFEASQSMQAIGYKELVPVIKGNISMENAVEKLKQHSRQYAKRQLTWFKNKMNVHWLNKERMSLQMMLDEITTQINKRSSNHDCKRKHPRPSTRELLEHHHHHH | soluble
13 | MYQETKQFYHLWLLAVQERDEAREHLKQSLVELSRLQECFNTILLSEDQQIPHYSYSETTDETPDHQKLYSYNNFSNESPSRFSSASSIDLVSNSTVYSSPETYDSDCYSLRTLQMGFAFEEKKDFETLVLENIGLGRMLPENGKFQQAIIEAGSLVDSLFITGPIPKWRNPPVQMLSQRPLLSHSIGKWNYGGQGIINRSFSGKMPRLSLMP | soluble
14 | MTIEDTVIKLIGSLKDPLLDLTGKEMNLQYKITTSNQAMHVVLTAGYPTSLLETSYKPIVQKIVQDEFPNYQVTISIQQFIKAHKTQLTGKALRGVKNTIAVASGKGGVGKSTVTVNLAAALAKLGARVGILDADIYGPSIPLMLGETKPVQVKDNCYIPVEAHGMQAMSIGYLTDTNQALIWRGPMLAKSLIQMLDITLWNELDYLFIDLPPGTGDIQLTLVQKIPLTSAIVVTTPQNVATLDAQKAITMFSRTGIDVLGIIENMSTHICSHCGHQEAIFGRGGAAALCDAYQCTLLGQLPLDSHVRRHCDEGVPTATHSSNQLTDTFIKTAMRTAIELSKKPINYADRFPKIVVEAAALEHHHHHH | soluble
15 | MSPEKYLQDWQTSQTIAESISPLIGKLYRQKGIEVVLFGKTLINATTIDILKTHRVARRYTGSPLSLEHTMPIIQALCEMSISSCRVDVGQLATKYWNEHEDTAALNDFLQTALQGARDADSS | not soluble
16 | MVPQTETKAGAGFKAGVKDYRLTYYTPDYVVRDTDILAAFRMTPQPGVPPEECGAAVAAESSTGTWTTVWTDGLTSLDRYKGRCYDIEPVPGEDNQYIAYVAYPIDLFEEGSVTNMFTSIVGNVFGFKALRALRLEDLRIPPAYVKTFVGPPHGIQVERDKLNKYGRGLLGCTIKPKLGLSAKNYGRAVYECLRGGLDFTKDDENVNSQPFMRWRDRFLFVAEAIYKAQAETGEVKGHYLNATAGTCEEMMKRAVCAKELGVPIIMHDYLTGGFTANTSLAIYCRDNGLLLHIHRAMHAVIDRQRNHGIHFRVLAKALRMSGGDHLHSGTVVGKLEGEREVILGFVDLMRDDYVEKDRSRGIYFTQDWCSMPGVMPVASGGIHVWHMPALVEIFGDDACLQFGGGTLGHPWGNAPGAAANRVALEACTQARNEGRDLAREGGDVIRSACKWSPELAAACEVWKEIKFEFDTIDKL | soluble
17 | MVSLSDLASYPICRRCAGRIFAMVGTGLTNLERGSMLEFSIKCEKNDPEFNFADPQNCEICHGIFDKFSVFLSLVEDKLKEIEYSTFVVGSVFPKEWIELENKIQEAFGAHGESIKKEFNREFGKYITAKTGKEYRKEDPDITIAVNVEYEFVNVSIKSLFIYGKYRKYRRDMPQTRWIHKKDGDSIESIIGEAALRIAGGKNYYLHGSGREDVDVRMLGNGREFVIEVEAPIMRTFDLSILSETVNRSMKGVEIFDLSFVDRKTVKEIKEEKHSKVYDCIIEGDTDIDKLKLEEACTEMNGKNIYQRTPLRVAQRRSDLIRTRKIERMELVAVEGKEAEIVVQAEAGTYIKELISGDSGRTNPSLSSKYGSQLNVKELDVIKICRGELEHHHHHH | not soluble
18 | TLSRDDAAQVAKVLSEALPYIRRFVGKTLVIKYGGNAMESEELKAGFARDVVLMKAVGINPVVVHGGGPQIGDLLKRLSIESHFIDGMRVTDAATMDVVEMVLGGQVNKDIVNLINRHGGSAIGLTGKDAELIRAKKLTVTRQTPEMTKPEIIDIGHVGEVTGVNVGLLNMLVKGDFIPVIAPIGVGSNGESYNINADLVAGKVAEALKAEKLMLLTNIAGLMDKQGQVLTGLSTEQVNELIADGTIYGGMLPKIRCALEAVQGGVTSAHIIDGRVPNAVLLEIFTDSGVGTLISNRKRH | soluble
19 | GPGSMPPPAPPALEKKTAAGVEVDLTKMVLDTSSFLRASAQRPSMRYPSRASVSNSAFISAQEYDDLRARYSQAKRELLKVSDIQKDLDFARFELTRSQEEMKLLRASNHNLKNEVEEYVQRAEKEHKARMSLEAKMSAEGATRTEEIEFLKKTIDELRAENAKRLDYMTQQQEDEFQARLQSMREELAGAAEELARLTAEAAQAQKARELSESKLTAALTDLEKSRAVVDDCKARIDALQKECHALEQQHRDFVQQQERQNAAYLEEQKALNEERVHQVAESKNAAIAEMQEELHLWKEKTKTTAEELAAARHAASQLQDDVKQLTADRAKEVRRLAEEHRLALCELQLQMEAAIREARGSKTSLEEEAQSLRRQLAQVSTELSTVAGVLAQRERQLAKAEEELLRTKDRCVAAEQENAQLASDAQLNAEAADEAAARVERLMRQNSDMEEEFSKDLREAKDRIRTLEATLMQSKGELSALRKEQIKSADDGLAATRDLRAQAEALMEECTALKAQAGERRRLEEMARDYCQRFEAERTKVGTLEAELSAAVGRCTAVEAKLEELSRRVISQAVSRSPMQTLHPNATAASLSCHGKHRSVSSGQSYAPTGGSSMKRARTEDARVFAISGFDGNDVLLAVKQLPNVAIAECKSNMPVPSNLTHLITNGQLTIKLLTALVRGCWVLPESYVVDSLKEQTWLREEDYGFQHEEPPLLKKRIALTEAFMACKHYSTASLLLKEGGAILVDDPEQADILLCTNAEARSTQNGWNWEKMVEIIYPLKIQ | soluble
20 | MAIDPAAAYASAIRTPGLLPNAKLVVDHFHVTTLANDALTAVRRRVTWAFHDRRGRKIDPQWANRRRLLTARERLSDKSFAKMRNRINAVDPRAQILSAWIAKEELRTLLSTVRTGGDPHLARHHLHRFLPGASTRRSPNCSPWPPPLTSHPRSTPSWSPASPTRASVVGEVAEMLGDIDGQCVQVEVPVPERGPAGCGGLDGLGRAGVSATPRVCAAMTAVNVAGRCAGQQADVGPTPQHRCRGR | soluble

Source: the DeepSol protein solubility set
